Data on one substance can be found in patent publication US20050002904A1, “Uses of vascular endothelial growth factor and type I collagen inducible protein (VCIP)” (priority 2003, published 2005).

Test [1] relates to Fak, Cas, Shc and paxillin. The test is described as follows: Tyrosine phosphorylation of focal adhesion proteins in replated HUVECs. The following applies: HUVECs replated on coated dishes, 30 and 60 min. Format: cell-based, human. The procedure: Dishes were coated with either fibronectin (Fn, 10 μg/ml), vitronectin (Vn, 10 μg/ml) or affinity purified GST-VCIP-RGD or -RGE fusion proteins (10 and 20 nM). Endothelial cells were detached, washed and maintained in suspension (Sus) for 30 min, then allowed to re-attach for 30 or 60 min. Adherent cells were solubilized in RIPA buffer. Blots shown are representative of those obtained in at least three separate experiments. FIGS. 11A-E: Equal amounts of protein (˜1.0 mg) from clarified extracts were subjected to immunoprecipitation (IP) followed by immunoblotting using the indicated antibodies. FIG. 11F: Equal amounts of protein from total lysates (35 μg/lane) were subjected to immunoblotting with the anti-phospho-Erk½ antibody. FIG. 11G: The same membrane was stripped and re-probed with an anti-Erk½ antibody, showing that equivalent amounts of proteins used across the lanes.
Serum- and growth factor-starved HUVECs were allowed to attach and spread on dishes coated with optimal concentrations of fibronectin, vitronectin, GST-RGD-VCIP and GST-VCIP-RGE. Cells were harvested after 30 and 60 min at 37° C. Cells were then solubilized, clarified, pre-adsorbed, immunoprecipitated and subjected to immunoblotting with various antibodies as shown in FIG. 11. […] Cells that were replated onto GST-VCIP-RGE appeared rounded.

Test [2] has as its system αvβ3 and α5β1 integrins. In words: GST pull-down from [35S]Cys/Met-labelled endothelial cell lysates. The test is classed as binding, human. The conditions noted are these: 10 μg per 3 mg lysate.
Test [3] has as its target αvβ5 integrin (Homo sapiens, UniProt P06756+P18084). In words: Solid phase ligand binding assay (ELISA). The following applies: immobilized integrin, GST-fusion ligand in solution. The procedure:
(§1) FIG. 10A: Affinity purified GST-fusion proteins were resolved on SDS±PAGE and stained with Coomassie Blue. FIG. 10B: Integrins were immobilized onto 96-well plates, and various GST-fusion proteins (ligands) were allowed to bind. Bound ligands were incubated with anti-GST antibodies, appropriate substrate added and the color intensity measured. OD values <0.05 were considered to be background binding. Data are expressed as mean±SD (n=4). FIG. 10C: Dose-dependent binding of αvβ3 integrin with recombinant GST-VCIP-RGD. FIGS. 10D-F: Representative photomicrographs of adhesion and spreading of endothelial cells replated onto dishes coated with either […]. Cells were allowed to attach for 45 min, washed with PBS and stained with H&E. Magnification, 100×. Bar, 25 μm. FIG. 10G: Adhesion blocking assays. Endothelial cells were replated onto dishes coated with increasing concentrations of affinity purified fusion proteins (1, 5 and 10 nM). Attached cells were stained, washed and absorbances of eluted dyes measured. To determine the effects of anti-integrin antibodies, dishes were coated with 10 nM GST-VCIP-RGD. Endothelial cells were pre-incubated at 4° C. with increasing concentrations of anti-α5β1 (P1D6), anti-αvβ3 (LM609), anti-α2β1 (MAB 1998) and anti-α3β1 (P1B5) monoclonal antibodies (1, 5 and 10 μg/ml) for 30 min, then washed and replated onto coated dishes. Attached cells were stained, washed and absorbances of eluted dyes determined. Three independent experiments were performed with several replicate samples in each experiment. Data are expressed as mean±S.D.; diamond, P<0.01; asterisk, P<0.001. FIG. 10H: Clarified extracts prepared from [^35S]Cys/Met-labeled HdMVEC were pre-adsorbed and incubated with GST-VCIP-RGD in the absence (−) or presence (+) of GRGDSP peptide (lanes 1 and 2). The presence of αvβ3 and α5β1 integrins (lanes 5 and 6) in GST-VCIP pull-down complex (lane 1) was confirmed by incubating aliquots of dissociated complex with the indicated antibodies. Anti-mouse IgG was included as negative control (lane 3).
(§2) Solid phase ligand binding assays were performed according to a previously published procedure (Orlando and Cheresh, 1991). Briefly, soluble α2β1, α5β1, αvβv3 and αvβ5 integrins (1 μg/ml in a solution containing 20 mM Tris pH 7.4, 150 mM NaCl, 1 mM CaCl2, 1 mM MgCl2 and 1 mM MnCl2) were immobilized onto 96-well microtiter plates at 4° C. Wells were washed and blocked with 0.5% BSA. After washing, GST, GST-VCIP-RGD and GST-VCIP-RGE ligands were added (50-350 ng per well in a solution of TBS pH 7.4) and incubated at 37° C. for 1 h. After washing, the wells were incubated with the anti-GST (sc-138, Santa Cruz) monoclonal antibody for 1 h, followed by washing and incubation with a horseradish peroxidase (HRP)-conjugated mouse secondary antibody. Plates were then washed again and the ABTS substrate (Bio-Rad) was added. All washing steps were carried out using PBS. Absorbances were read at 405 nm, and non-specific binding values were adjusted against BSA.
(§3) To determine whether GST-VCIP-RGD could interact with various integrins, a solid-phase ligand binding assay was performed.

Test [4] has as its target αvβ3 integrin (Homo sapiens, UniProt P05106+P06756). In words: Solid phase ligand binding assay (ELISA). The procedure: as §1, §2, §3
In test [5] the target is α2β1 integrin (Homo sapiens, UniProt P05556+P17301). In words: Solid phase ligand binding assay (ELISA). The following applies: immobilized integrin, GST-fusion ligand in solution. The procedure: as §1, §2, §3
For test [6], the target named is α5β1 integrin (Homo sapiens, UniProt P05556+P08648). The test is described as follows: Solid phase ligand binding assay (ELISA). The following applies: immobilized integrin, GST-fusion ligand in solution. The protocol:
as §1, §2, §3

Test [7] concerns endothelial cells. The test is described as follows: Adhesion of endothelial cells to wells coated with GST fusion proteins. Format: cell-based, human. The conditions noted are these: coating 1, 5, 10 nM; 45 min. The procedure:
FIG. 10A: Affinity purified GST-fusion proteins were resolved on SDS±PAGE and stained with Coomassie Blue. FIG. 10B: Integrins were immobilized onto 96-well plates, and various GST-fusion proteins (ligands) were allowed to bind. Bound ligands were incubated with anti-GST antibodies, appropriate substrate added and the color intensity measured. OD values <0.05 were considered to be background binding. Data are expressed as mean±SD (n=4). FIG. 10C: Dose-dependent binding of αvβ3 integrin with recombinant GST-VCIP-RGD. FIGS. 10D-F: Representative photomicrographs of adhesion and spreading of endothelial cells replated onto dishes coated with either fibronectin (FIG. 9D), vitronectin (FIG. 9E) or GST-VCIP-RGD (FIG. 9F). […] Attached cells were stained, washed and absorbances of eluted dyes measured. […] Attached cells were stained, washed and absorbances of eluted dyes determined. […] Data are expressed as mean±S.D.; diamond, P<0.01; asterisk, P<0.001. […]
For adhesion blocking assays, endothelial cells were detached, washed with PBS and resuspended in M199 media containing 1 mM CaCl2 and 1 mM MgCl2 in the absence of serum or growth factors. […] Absorbances were measured at 540 nm.
Next, the capacity of VCIP-RGD to bind endothelial cell integrins was evaluated by determining the effect of GST-VCIP fusion proteins on cell adhesion and spreading.

Where no end group is shown, it is not given here.

Chain of αvβ3 integrin (P06756 31-889 limits assumed): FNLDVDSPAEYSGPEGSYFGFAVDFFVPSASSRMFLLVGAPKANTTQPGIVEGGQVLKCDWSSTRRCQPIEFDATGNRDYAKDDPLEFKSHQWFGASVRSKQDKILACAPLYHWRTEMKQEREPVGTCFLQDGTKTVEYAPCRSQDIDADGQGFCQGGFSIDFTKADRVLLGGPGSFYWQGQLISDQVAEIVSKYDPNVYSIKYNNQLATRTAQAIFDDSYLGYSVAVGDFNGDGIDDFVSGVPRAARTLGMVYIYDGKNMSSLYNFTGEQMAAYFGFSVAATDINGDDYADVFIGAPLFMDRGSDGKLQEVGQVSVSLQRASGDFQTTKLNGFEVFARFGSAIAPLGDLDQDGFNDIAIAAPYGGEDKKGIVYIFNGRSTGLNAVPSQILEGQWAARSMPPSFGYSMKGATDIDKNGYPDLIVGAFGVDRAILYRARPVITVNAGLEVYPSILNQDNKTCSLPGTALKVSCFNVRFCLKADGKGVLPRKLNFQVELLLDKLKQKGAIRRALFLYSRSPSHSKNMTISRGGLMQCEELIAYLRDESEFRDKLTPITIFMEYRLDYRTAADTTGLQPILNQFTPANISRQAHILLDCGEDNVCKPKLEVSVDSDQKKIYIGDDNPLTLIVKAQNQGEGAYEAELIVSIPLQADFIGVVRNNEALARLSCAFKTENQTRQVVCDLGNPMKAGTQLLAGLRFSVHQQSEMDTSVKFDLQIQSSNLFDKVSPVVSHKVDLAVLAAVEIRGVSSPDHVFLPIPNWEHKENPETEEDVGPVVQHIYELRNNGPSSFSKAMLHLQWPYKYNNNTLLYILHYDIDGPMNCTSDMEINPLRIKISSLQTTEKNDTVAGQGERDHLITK
Chain of αvβ3 integrin (P06756 891-1048 limits assumed): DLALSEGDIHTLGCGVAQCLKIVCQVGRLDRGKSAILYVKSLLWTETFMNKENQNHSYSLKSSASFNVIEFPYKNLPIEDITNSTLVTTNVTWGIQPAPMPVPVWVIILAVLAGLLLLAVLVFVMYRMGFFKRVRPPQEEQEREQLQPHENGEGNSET
Chain of αvβ3 integrin (P05106 27-788): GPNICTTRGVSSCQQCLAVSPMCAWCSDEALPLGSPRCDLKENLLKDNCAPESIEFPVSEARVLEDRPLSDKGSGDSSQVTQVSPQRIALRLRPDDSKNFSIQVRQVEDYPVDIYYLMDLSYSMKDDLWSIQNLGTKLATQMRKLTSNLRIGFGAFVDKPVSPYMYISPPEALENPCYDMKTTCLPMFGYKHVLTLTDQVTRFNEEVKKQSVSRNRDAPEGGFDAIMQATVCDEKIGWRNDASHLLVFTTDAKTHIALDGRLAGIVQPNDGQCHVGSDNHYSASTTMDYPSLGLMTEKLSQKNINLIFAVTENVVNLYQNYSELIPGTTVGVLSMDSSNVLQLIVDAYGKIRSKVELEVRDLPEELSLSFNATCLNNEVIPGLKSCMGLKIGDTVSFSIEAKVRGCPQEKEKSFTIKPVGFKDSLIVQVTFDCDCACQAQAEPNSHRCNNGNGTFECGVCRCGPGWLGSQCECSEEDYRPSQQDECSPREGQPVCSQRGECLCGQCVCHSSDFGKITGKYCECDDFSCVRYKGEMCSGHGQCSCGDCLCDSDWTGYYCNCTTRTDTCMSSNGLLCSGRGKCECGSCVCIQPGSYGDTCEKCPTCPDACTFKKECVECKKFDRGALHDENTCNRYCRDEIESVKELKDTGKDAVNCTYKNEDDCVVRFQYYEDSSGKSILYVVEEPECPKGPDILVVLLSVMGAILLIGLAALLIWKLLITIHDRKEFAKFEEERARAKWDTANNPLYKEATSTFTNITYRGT
Chain of α2β1 integrin (P17301 30-1181): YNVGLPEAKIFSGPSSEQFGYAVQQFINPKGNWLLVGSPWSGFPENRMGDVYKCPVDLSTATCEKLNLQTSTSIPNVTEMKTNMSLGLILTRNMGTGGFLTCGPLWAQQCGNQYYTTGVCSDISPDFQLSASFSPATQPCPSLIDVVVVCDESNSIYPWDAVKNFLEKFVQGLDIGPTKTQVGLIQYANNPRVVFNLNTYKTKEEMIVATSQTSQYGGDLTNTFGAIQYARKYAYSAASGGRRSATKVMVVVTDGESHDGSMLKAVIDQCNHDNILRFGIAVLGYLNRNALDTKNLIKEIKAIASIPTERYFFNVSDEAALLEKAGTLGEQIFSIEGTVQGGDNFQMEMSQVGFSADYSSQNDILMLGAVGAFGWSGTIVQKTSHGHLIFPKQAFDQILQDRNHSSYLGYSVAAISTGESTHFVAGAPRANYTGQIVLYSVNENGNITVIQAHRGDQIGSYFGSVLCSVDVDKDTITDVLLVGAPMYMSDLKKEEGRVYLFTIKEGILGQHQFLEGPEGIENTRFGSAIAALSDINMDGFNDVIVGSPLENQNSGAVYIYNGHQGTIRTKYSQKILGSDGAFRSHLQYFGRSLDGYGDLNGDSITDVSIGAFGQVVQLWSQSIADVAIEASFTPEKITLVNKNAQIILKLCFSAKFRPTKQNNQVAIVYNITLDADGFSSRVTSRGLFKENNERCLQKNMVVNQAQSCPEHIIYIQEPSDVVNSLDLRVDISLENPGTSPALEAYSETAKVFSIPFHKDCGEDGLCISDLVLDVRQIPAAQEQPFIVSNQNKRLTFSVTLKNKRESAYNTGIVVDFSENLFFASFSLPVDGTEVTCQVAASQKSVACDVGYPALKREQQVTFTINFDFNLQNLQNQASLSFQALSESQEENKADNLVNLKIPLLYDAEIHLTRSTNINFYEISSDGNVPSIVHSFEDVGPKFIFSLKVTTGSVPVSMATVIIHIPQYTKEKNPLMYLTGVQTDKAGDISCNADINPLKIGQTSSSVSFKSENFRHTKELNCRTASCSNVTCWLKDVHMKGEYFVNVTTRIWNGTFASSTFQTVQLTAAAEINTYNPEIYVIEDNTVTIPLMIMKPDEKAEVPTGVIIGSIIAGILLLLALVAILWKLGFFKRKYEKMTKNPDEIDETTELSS
Chain of α2β1 integrin (P05556 21-798): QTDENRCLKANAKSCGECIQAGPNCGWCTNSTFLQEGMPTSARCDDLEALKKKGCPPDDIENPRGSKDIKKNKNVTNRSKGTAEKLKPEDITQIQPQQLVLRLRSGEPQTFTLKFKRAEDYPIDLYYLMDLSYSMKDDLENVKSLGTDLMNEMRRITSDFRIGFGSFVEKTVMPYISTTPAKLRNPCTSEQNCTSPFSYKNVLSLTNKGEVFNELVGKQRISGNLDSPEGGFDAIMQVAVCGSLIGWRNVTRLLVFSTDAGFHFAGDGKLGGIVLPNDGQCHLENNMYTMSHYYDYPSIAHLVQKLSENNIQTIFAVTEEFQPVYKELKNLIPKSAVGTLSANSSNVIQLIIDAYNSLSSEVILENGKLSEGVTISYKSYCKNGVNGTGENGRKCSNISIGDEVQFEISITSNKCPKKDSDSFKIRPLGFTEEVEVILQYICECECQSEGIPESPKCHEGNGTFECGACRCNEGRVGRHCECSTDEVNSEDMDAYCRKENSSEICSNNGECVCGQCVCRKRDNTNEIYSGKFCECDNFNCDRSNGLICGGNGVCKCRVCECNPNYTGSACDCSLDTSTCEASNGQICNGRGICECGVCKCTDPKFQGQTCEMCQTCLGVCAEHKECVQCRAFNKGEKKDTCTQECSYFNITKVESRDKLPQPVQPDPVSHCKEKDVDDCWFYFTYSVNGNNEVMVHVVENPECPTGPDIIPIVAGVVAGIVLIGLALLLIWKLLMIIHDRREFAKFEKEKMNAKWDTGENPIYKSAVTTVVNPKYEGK
Chain of αvβ5 integrin (P06756 31-889 limits assumed): as the sequence (P06756 31-889 limits assumed) above
Chain of αvβ5 integrin (P06756 891-1048 limits assumed): as the sequence (P06756 891-1048 limits assumed) above
Chain of αvβ5 integrin (P18084 24-799): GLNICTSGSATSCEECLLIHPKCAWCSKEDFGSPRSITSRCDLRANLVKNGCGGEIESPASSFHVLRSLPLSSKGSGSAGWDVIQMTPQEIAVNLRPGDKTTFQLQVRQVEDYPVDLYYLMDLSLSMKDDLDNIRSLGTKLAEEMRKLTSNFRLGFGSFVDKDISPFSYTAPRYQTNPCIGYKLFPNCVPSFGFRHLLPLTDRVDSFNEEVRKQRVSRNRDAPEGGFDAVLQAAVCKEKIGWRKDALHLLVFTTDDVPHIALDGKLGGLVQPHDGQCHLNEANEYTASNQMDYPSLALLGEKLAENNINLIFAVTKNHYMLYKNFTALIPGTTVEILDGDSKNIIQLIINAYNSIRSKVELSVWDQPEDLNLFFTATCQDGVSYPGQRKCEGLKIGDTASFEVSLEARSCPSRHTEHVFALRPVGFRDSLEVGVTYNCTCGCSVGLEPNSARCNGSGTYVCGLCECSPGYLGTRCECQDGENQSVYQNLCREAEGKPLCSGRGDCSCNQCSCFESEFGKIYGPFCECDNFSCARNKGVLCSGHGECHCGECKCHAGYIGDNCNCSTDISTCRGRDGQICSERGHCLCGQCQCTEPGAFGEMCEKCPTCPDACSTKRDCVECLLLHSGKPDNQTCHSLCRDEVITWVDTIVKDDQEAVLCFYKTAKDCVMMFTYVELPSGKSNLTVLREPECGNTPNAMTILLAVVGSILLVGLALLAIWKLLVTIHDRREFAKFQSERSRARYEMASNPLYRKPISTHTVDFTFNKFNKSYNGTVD

For “GST-VCIP-RGD: recombinant GST fusion of 49 amino acid residues (145-194) of VCIP second extracellular loop, wild-type RGD (DIAKVSIGRLRPHFLSVCNPDFSQINCSEGYIQNYRCRGDDSKVQEARKS; cysteine pairing not given here; also: GST fusion)”, the “tyrosine phosphorylation of Fak, Cas, Shc and paxillin” value is “comparable to those induced by fibronectin and vitronectin” in test [1]; “induced tyrosine phosphorylation of Fak, Cas, Shc and paxillin at both 30 and 60 min” in test [1] (listed as VCIP-RGD). Moreover, in test [2], the “integrins present in pull-down complex” value is “contained anti-αvβ3 and -α5β1 immunoreactivities”. Further, in test [3], the “interaction with αvβ5 integrin” value is “did not”. Moreover, the “dose-dependence of binding to αvβ3 integrin” value in test [4] (FIG. 10C) was “bound to αvβ3 integrin in a dose-dependent manner”. The “interaction with αvβ3 integrin” value in test [4] (immobilized integrin, GST-fusion ligand in solution) was “interacted”. Further, in test [5], the “interaction with α2β1 integrin” value is listed as “did not”. Further, the “interaction with α5β1 integrin” value in test [6] is “interacted”. Moreover, the “adhesion of endothelial cells to coated wells” value in test [7] was “comparable to that observed in wells coated with vitronectin and fibronectin substrates”.
